Key:
RecQ4 427-1116 = biological target: T1, RecQ4 427-1116 (Homo sapiens, UniProt O94761 427-1116); assay: fluorescence polarization; apparent Kd; 20 mM HEPES pH 8.0, 10 mM NaCl, 5% glycerol, 1 mM MgCl2, 0.5 mM TCEP, 0.5 nM Cy3-ssDNA; temperature not stated; settings: protein: recombinant; tags: Trx-His6 removed by 3C protease; label: 5' Cy3
T1 sequence: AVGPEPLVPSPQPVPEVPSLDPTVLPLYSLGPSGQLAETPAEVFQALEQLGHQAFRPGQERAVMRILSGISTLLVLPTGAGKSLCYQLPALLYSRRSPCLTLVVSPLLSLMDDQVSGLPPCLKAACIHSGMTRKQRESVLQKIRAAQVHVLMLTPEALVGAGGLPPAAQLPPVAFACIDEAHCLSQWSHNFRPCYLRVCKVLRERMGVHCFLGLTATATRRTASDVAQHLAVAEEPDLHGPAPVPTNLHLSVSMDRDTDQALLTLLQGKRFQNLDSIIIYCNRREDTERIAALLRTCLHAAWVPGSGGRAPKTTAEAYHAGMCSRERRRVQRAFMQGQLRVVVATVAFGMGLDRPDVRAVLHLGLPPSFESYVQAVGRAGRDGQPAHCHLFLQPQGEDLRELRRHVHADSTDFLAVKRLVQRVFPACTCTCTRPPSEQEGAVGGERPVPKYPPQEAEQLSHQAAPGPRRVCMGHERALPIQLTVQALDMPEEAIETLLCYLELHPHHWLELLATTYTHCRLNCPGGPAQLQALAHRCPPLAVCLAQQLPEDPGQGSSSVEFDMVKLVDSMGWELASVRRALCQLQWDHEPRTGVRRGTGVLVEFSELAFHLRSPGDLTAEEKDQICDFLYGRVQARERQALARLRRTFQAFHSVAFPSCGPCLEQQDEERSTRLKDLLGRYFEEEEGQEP

RecQ4 427-1208 WT = biological target: T2, RecQ4 427-1208 WT (Homo sapiens, UniProt O94761 427-1208); assay: as above; settings: protein: recombinant; tags: Trx-His6 removed by 3C protease; label: 5' Cy3
T2 sequence: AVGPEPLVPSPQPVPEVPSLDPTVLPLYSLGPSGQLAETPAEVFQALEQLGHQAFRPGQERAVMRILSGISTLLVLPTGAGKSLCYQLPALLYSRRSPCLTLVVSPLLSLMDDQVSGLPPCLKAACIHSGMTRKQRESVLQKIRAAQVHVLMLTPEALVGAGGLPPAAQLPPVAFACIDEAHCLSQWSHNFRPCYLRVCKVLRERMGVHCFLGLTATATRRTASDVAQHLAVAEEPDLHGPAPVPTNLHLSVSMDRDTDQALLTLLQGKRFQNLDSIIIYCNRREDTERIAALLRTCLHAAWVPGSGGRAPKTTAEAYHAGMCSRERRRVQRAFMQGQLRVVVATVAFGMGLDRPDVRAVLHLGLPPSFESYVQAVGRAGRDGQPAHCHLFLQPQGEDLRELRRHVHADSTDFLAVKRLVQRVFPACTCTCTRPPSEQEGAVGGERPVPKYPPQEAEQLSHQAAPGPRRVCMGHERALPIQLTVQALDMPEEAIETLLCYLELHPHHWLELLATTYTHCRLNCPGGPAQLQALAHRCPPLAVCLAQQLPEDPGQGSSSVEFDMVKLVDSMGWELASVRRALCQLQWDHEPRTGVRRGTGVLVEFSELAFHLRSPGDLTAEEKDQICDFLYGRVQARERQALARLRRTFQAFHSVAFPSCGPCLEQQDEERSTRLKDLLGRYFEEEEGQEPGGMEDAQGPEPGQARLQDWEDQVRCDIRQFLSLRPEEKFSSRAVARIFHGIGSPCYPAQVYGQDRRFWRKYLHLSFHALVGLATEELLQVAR

With CCATTCCACCCTCTATTTTTTTTTTTTTTT (ssDNA) [T3-Cy3] the Kd (RecQ4 427-1116) was 18.1 ± 0.8 nM and the Kd (RecQ4 427-1208 WT) was 4.6 ± 0.4 nM.

Source: publication PMC5490261, “The structural and functional characterization of human RecQ4 reveals insights into its helicase mechanism”
